Our source for the amyloid nucleation score values is the supplement of paper PMC12042874.

± gives the uncertainty stated by the source.

The nature of the data set: amyloid nucleation score (Sup35N fusion, yeast selection) (log enrichment); library NNK1; higher = more nucleation; inactive = no reads after selection. The essentials:
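The nucleation score is the log enrichment of output over input reads, calculated with DiMSum and centred on the mode score of non-aggregating sequences. Sequences with under 100 input reads were excluded. Reads came from Illumina sequencing of plasmid inserts from psi-negative yeast expressing Sup35N fused to peptides of 20 random codons, induced 24 hours with 100 μM copper sulfate and grown 7 days at 30°C without adenine and uracil.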
Consider IRCLGISRIFLVYRSVPFWI, for which the amyloid nucleation score amounted to 0.413 ± 0.57.
Substance IRCRQQARTMYNKMEKMGRG had an amyloid nucleation score of -0.433 ± 0.3.
Substance IRDDCTYYVSAE came in with an amyloid nucleation score of 0.634 ± 0.23.
In turn, IRDRMLMCDGKRLNTLLEHI came in with an amyloid nucleation score of 0.145 ± 0.49.
The same measure for IRGTTRAFLANQGCDVLYTG: -0.865 ± 0.86; for IRIKDTFESWYSLINEDLGH: “inactive”.
Substance IRKIS gave an amyloid nucleation score of -1.13 ± 1.7.
With IRLIKIPVKFKFVSTMCSGC, the amyloid nucleation score was -0.1 ± 0.93.
As for IRLKYSGHAILFHETKNKHA, the amyloid nucleation score was 0.511 ± 0.42.
IRPINKYRIVLIWVSFVRGE showed an amyloid nucleation score of 0.718 ± 0.73.
For the substance IRSFPTV, the amyloid nucleation score was determined as 0.075 ± 0.47.
IRVGGIWRGCCGVDLCYLTI had an amyloid nucleation score of -0.627 ± 0.61.
Turning to ISAVGKYESDTVGPSKND, the amyloid nucleation score was determined as 0.507 ± 1.
For ISDEIGIAIENKDSLRKGFR, the amyloid nucleation score is 0.002 ± 0.84.
In the case of ISEVFD, the amyloid nucleation score was -0.237 ± 0.24.
Regarding ISGAN, the amyloid nucleation score was -0.06 ± 0.44.
ISGFRKLVMVREVP returned an amyloid nucleation score of -0.606 ± 1.4.
In turn, ISGGLTGKWVFVLGDWWVMF registered an amyloid nucleation score of -0.206 ± 0.74.
ISGTRLVLGLDDSR: the amyloid nucleation score stood at 0.069 ± 0.37.
With ISIQSLRLSSSSWNLTLHCG, the amyloid nucleation score is 3.25 ± 0.097.
Take ISISLRHECRYKMFEQ: the amyloid nucleation score was determined as 2.22 ± 0.19.
The substance ISKFFYLVW came in with an amyloid nucleation score of 0.097 ± 0.52.
As to ISKISPFECGPVVAQ, the amyloid nucleation score turned out to be 1.12 ± 0.73.
Next, ISLVLDFGDVYIVS: 6.203 ± 0.048; ISMNF: 0.67 ± 1.1.
On to ISQVIGSRILPRPTEQVA, for which the amyloid nucleation score was -1.96 ± 1.3.
As for ISRSASVGRGLGKYESRAVR, the amyloid nucleation score is 0.353 ± 1.2.
The substance ISRSICKREVLQVDR returned an amyloid nucleation score of 0.378 ± 0.51.
The substance ISSKLLFSESSPSMSIQTHW displayed an amyloid nucleation score of 0.765 ± 0.64.
ISSLYLMSFCILFPPRKFVY: the amyloid nucleation score is -1.09 ± 0.51.
As to ISSRRCVRED, the amyloid nucleation score result was “inactive”.
ISTPKDISSPKSFWNIFFGT showed an amyloid nucleation score of 4.65 ± 0.069.
Take ISVKSW: the amyloid nucleation score was -0.325 ± 0.98.
For ITLCVNRLRFRVKLNHQSSF, the amyloid nucleation score entry is “inactive”.
The substance ITLKCCMSTRNHMCHR showed an amyloid nucleation score of 3.75 ± 0.066.
The substance ITLKF came in with an amyloid nucleation score of -0.381 ± 0.43.
In turn, ITPTYGT displayed an amyloid nucleation score of -0.023 ± 0.39.
The substance ITRPGKWGRGD gave an amyloid nucleation score of 0.782 ± 0.35.
In turn, ITSNHSVWGIMLLKLVTGSI came in with an amyloid nucleation score of 0.496 ± 0.48.
The substance IVEDSLRFIANPYTILNR gave an amyloid nucleation score of 0.723 ± 0.55.
The substance IVEFASFSVQVNARNDLHLV returned an amyloid nucleation score of 1.73 ± 0.28.
With IVFRLS, the amyloid nucleation score was found to be 0.185 ± 0.38.
Take IVGFHGSNFYSDVSVIGQML: the amyloid nucleation score result was “inactive”.
With IVIAVMSGSYVSLKSWFLRH, the amyloid nucleation score was -1.5 ± 1.3.
IVLPVCDIITEAVLSCNSPG yielded an amyloid nucleation score of 0.318 ± 0.33.
For the substance IVLWCTWYYNWNWPSALFRM, the amyloid nucleation score was -0.192 ± 0.78.
IVNAKLSWSYPGIIRLCHCE registered an amyloid nucleation score of 0.43 ± 0.28.
In turn, IVSKFSYQFKSIGINFYFFR had an amyloid nucleation score of 4.18 ± 0.12.
The same measure for IVSLNGPAKSSAFGKFSGPL: -0.602 ± 0.72; for IVSMRL: 0.216 ± 1.4.
Substance IVVGRC yielded an amyloid nucleation score of 0.144 ± 0.39.
The same measure for IVVLLKNRS: 0.488 ± 0.47; for IVVVGD: -1.63 ± 1.3; for IWHFASCAYGGVGSKGDPSD: 0.67 ± 0.69.
The same measure for IWLFFFPMSLRFASYWTGLL: -1.1 ± 0.81; for IWLKWCNSPLVRLSMGNSSF: 0.206 ± 0.27.
Substance IWMLELSGFMKMVQGGHQVG showed an amyloid nucleation score of 3.06 ± 0.14.
Next, IWNSVARFRYSSMGFVVSAG: 0.898 ± 0.93.
The same measure for IWPLGNAIK: 1.93 ± 0.51; for IWRTLWMWSVGTSTNPVHSL: -0.088 ± 0.49; for IWRWPRMESKSGYHSDFNST: -1.32 ± 2.4.
Next, IWSGATV: 0.445 ± 0.41; IWVSGWNYVGRVVVEYQRLS: 0.444 ± 1.4; IWVSLDYMKSGNGNFTDSFC: 2.82 ± 0.12.
As to IWWFGSILFLRQSWYKIWSC, the amyloid nucleation score is -0.877 ± 0.39.
Turning to IWYSDVGPTTN, the amyloid nucleation score was -1.14 ± 0.56.
IYACTYY: the amyloid nucleation score turned out to be 0.184 ± 0.45.
As to IYISYIRRRFVGLFST, the amyloid nucleation score was -0.938 ± 0.47.
IYLNFLPVVPCRFFCIRTWG: the amyloid nucleation score result is “inactive”.
Next, IYLPRNVFRLTWFYLSQSLA: 0.639 ± 1.1.
IYNFSKYPVFGKTRALGFNF displayed an amyloid nucleation score of -0.395 ± 0.67.
IYNLNVISSVCESTRCRQTA returned an amyloid nucleation score of 7.08 ± 0.078.
Next, IYNRKTYFMTTSATVVFAVP: 0.696 ± 0.4.
IYQKGMVLGATRNGFSRCKG came in with an amyloid nucleation score of -0.173 ± 0.3.
On to IYRGSNRLRRIGWEFNVALD, for which the amyloid nucleation score is -0.819 ± 0.33.
As for IYTRFFNTV, the amyloid nucleation score was -0.222 ± 0.36.
For IYVYQLSFCCKAY, the amyloid nucleation score turned out to be 0.235 ± 0.66.
IYYSFVGLVMCYAFPAEVWS: the amyloid nucleation score amounted to 1.4 ± 0.51.
As for KAIRMLFSVMIVKR, the amyloid nucleation score entry was “inactive”.
Turning to KCDARVVIFYLVRAGGVNGI, the amyloid nucleation score turned out to be 1.41 ± 0.35.
Next, KCHLFKHLL: 1.66 ± 0.6; KCIYTEKEMGLSAFTLRLYI: 6.286 ± 0.058.
Turning to KCIYVFSYIYTFLNMCWRGH, the amyloid nucleation score worked out at 3.5 ± 0.1.
For the substance KCMTIAWIQSSVSAILLLNC, the amyloid nucleation score was -0.181 ± 1.4.
Consider KCRKASMSSPILDLCTRMRC, for which the amyloid nucleation score was -1.18 ± 1.9.
In turn, KDCDMIGDSVYGSKFVTREM returned an amyloid nucleation score of 0.503 ± 0.34.
Substance KDQKISVIMFILMRVPLY registered an amyloid nucleation score of 0.546 ± 0.45.
For the substance KDVFY, the amyloid nucleation score was -0.294 ± 0.5.
Next, KDVVISVGGMSVVLFSSRPH: 4.52 ± 0.091; KEDAIIWVYNKSVSMRIFVQ: -0.104 ± 0.46; KEHRPWGCW: “inactive”.
Substance KEKWRMQICAPGKS came in with an amyloid nucleation score of -1.24 ± 0.81.
KERIFPLTTEAMKLERKA: the amyloid nucleation score is -0.341 ± 0.57.
KFFCCN came in with an amyloid nucleation score of 7.776 ± 0.076.
Turning to KFIVMIE, the amyloid nucleation score is 0.386 ± 0.22.
KFIVWTFWSYLLTATRM registered an amyloid nucleation score of 0.157 ± 0.79.
For the substance KFLLLSCYIEWRLMSVLAKA, the amyloid nucleation score turned out to be 0.968 ± 0.69.
In turn, KFNPLLITKFSAWECGLVVG gave an amyloid nucleation score of -1.55 ± 1.9.
In turn, KFRRW yielded an amyloid nucleation score of -0.832 ± 0.56.
Consider KFTVVVAVSCRRLPSNICRI, for which the amyloid nucleation score is 0.141 ± 0.53.
KGDNIPLGAPSREMLTVYRA: the amyloid nucleation score was -0.146 ± 0.5.
On to KGELLGDWGAIYHWCF, for which the amyloid nucleation score entry is “inactive”.
For KGKPYFAEMLHIMSFVWSSD, the amyloid nucleation score was found to be 1.3 ± 0.6.
Next, KGKTVVSEDGEQCHLGCSRT: -0.079 ± 0.33.
Next, KGWKTVVHCRDYGQVNNFGS: 2.22 ± 0.14; KGYSSTYGRPSKHYCC: “inactive”.
The substance KHCDYHRWVEITSKRLFIGG registered an amyloid nucleation score of 0.134 ± 0.3.
Next, KHDIIESQPQVVHNNRCVWL: “inactive”; KHQSHFLVV: 0.872 ± 0.45; KIALTLIRRLQFLNDSVKPQ: 1.71 ± 0.17.
Next, KIATKGNIF: -0.951 ± 0.53; KIFDMRVESVYWVGRSPSKV: 0.706 ± 0.17; KIIPRRRKSFMLNTFKYPHD: 1.62 ± 0.52.
In turn, KIPKSVYVLTSIEGSAFNIK showed an amyloid nucleation score of -0.234 ± 1.6.
Next, KISITSTIVFS: 1.32 ± 0.33.
Take KISYADF: the amyloid nucleation score was determined as 0.646 ± 1.1.
Next, KITIGINS: 0.4 ± 0.33; KIVRSRWFIICACVKLRTRL: 0.427 ± 0.36.
Next, KKFVNFWVMSLYLNSDYSP: “inactive”; KKKRRLSSWYSHPVPSSGLL: 0.488 ± 1; KKNIWPLYSLRVRLYELAIS: -0.965 ± 1.7.
The same measure for KKVINPYFFGCTGCNNTQRK: -0.149 ± 0.31; for KLDMGVLPFANWSVDT: -0.032 ± 0.28.
In the case of KLETYYGAFNFNWFLSLNGD, the amyloid nucleation score was 5.08 ± 0.061.
Consider KLGPVTYLYP, for which the amyloid nucleation score was -0.03 ± 0.72.
Consider KLHDGFL, for which the amyloid nucleation score is -0.96 ± 2.7.
Substance KLMLLLSNSMNQRSDYPRFQ had an amyloid nucleation score of -0.327 ± 0.44.
On to KLREFAVLTLESGSFSVYCW, for which the amyloid nucleation score was -1.14 ± 1.2.
The same measure for KLRRDSFVFQVKFHLNKGML: -0.384 ± 0.46; for KLRSGCLDYIVIDLWTF: -0.439 ± 0.39.
Next, KLTHVNDLLTMVVNVSRAQG: -0.004 ± 1.4; KLYGVSCAPLSEDHCLGKAA: -0.339 ± 0.48.
KMECVVRVSGCRDKVDWTAG had an amyloid nucleation score of 2.53 ± 0.2.
Next, KMQPQMTCFS: -0.435 ± 0.53; KMRILWVV: 0.945 ± 0.51.
Consider KMTCCSGSINDGYLYCVYNV, for which the amyloid nucleation score worked out at 6.56 ± 0.071.
In turn, KNALWVRTVKNMCVLWDTGF showed an amyloid nucleation score of -1.08 ± 1.4.
Substance KNAVSSGRSGKITRR displayed an amyloid nucleation score of 0.231 ± 1.4.
The substance KNAYHFRG had an amyloid nucleation score of 0.113 ± 0.97.
Next, KNFFPFAFVFL: 7.083 ± 0.053; KNVMVFVQDWIVVSCMRVEK: 2.39 ± 0.14.
